Source: the supplement of paper PMC10567573

B1: DLC1 (parent)
chain: RDAIEALCRRLNTLNKCAVMKLEI
B2: ZNF511 (parent)
chain: HLYPADFRFDKPKKSRSPASAEAP

Variants of: B1
Assay: protein stability index of a GFP-peptide fusion (GPS, HEK-293T) (PSI 1-6); higher = more stable
Settings: c terminus: a fixed tail appended
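Further: lentivirally expressed fusions sorted by FACS into six bins by GFP to DsRed ratio, PSI derived from sequencing read proportions per bin multiplied by bin number.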

| Variant | protein stability index |
| --- | --- |
| D2A | 2.4 |
| D2S | 3.79 |
| D2G | 3.23 |
| D2E | 3.12 |
| D2Q | 2.74 |
| D2H | 1.94 |
| D2P | 3.08 |
| D2W | 4.44 |
| D2M | 3.99 |
| D2I | 2.03 |
| R1I | 2.9 |
| R1P | 2.85 |
| R1M | 3.94 |
| R1Y | 2.99 |
| R1N | 1.64 |
| R1Q | 3.23 |
| R1C | 2.52 |
| R1V | 3.38 |
| R1L | 2.02 |
| R1G | 2.35 |
| R1S | 3.94 |

| Variant | protein stability index |
| --- | --- |
| R1K | 2.23 |
| R1D | 2.4 |
| R1H | 3.12 |
| R1E | 2.47 |
| I4E | 1.44 |
| I4K | 2.37 |
| I4N | 2.4 |
| I4R | 2.41 |
| I4T | 2.24 |
| I4A | 1.76 |
| I4D | 2.67 |
| I4H | 2.44 |
| I4Q | 2.12 |
| I4M | 2.53 |
| I4F | 3.05 |
| I4L | 2.59 |
| I4C | 2.22 |
| I4V | 3.39 |
| E5H | 2.47 |
| E5A | 2.3 |
| E5W | 2.13 |

| Variant | protein stability index |
| --- | --- |
| E5M | 3.42 |
| E5V | 1.97 |
| E5Y | 2.23 |
| E5I | 2.84 |
| E5P | 3.06 |
| E5C | 2.39 |
| E5L | 3.21 |
| E5R | 2.97 |
| E5S | 1.83 |
| A3N | 3.61 |
| A3Q | 2.95 |
| A3G | 2.33 |
| A3E | 1.48 |
| A3Y | 2.37 |
| A3C | 3.99 |
| A3K | 2.7 |
| A3V | 3.3 |
| A3I | 2.5 |
| A3M | 3.33 |

Variants of: B2
Assay: as above
Settings: c terminus: a fixed tail appended

| Variant | protein stability index |
| --- | --- |
| P18K | 3.08 |
| P18I | 2.96 |
| K13A | 3.07 |
| K13S | 2.91 |
| K13N | 2.7 |
| K13Q | 3.4 |
| K13L | 2.94 |
| K13M | 2.84 |
| A21D | 2.72 |
| A21I | 2.82 |
| A21H | 3.12 |
| A21L | 2.38 |
| K11D | 3.23 |
| K11N | 3.37 |
| K11G | 3.5 |
| E22F | 2.52 |
| E22S | 2.83 |
| E22R | 2.43 |
| E22Y | 2.34 |
| E22D | 2.99 |
| P12T | 3.7 |
| P12V | 2.8 |
